Results reported in PMC3720919, “Mcm10 Self-Association Is Mediated by an N-Terminal Coiled-Coil Domain” (PLoS ONE, 2013).
Several values for one entry are separate records, joined by “and”; a condition that tells them apart may be missing. Equal entries are not always repeated.

How the values were obtained:
[1] = molecular target: the molecule itself; test: native gel or EMSA; native gel electrophoresis (4-16% Bis-Tris) of the NTD
[2] = molecular target: the molecule itself; test: SEC-MALS; Superose6 10/300 GL, 0.4 ml/min, 25 mM Tris pH 7.5, 150 mM NaCl, 2% glycerol, 2 mM BME
[3] = molecular target: the molecule itself; test: AUC; sedimentation velocity, 42,000 rpm, 20°C; 0.6 mg/ml in PBS pH 7.4, 150 mM NaCl, 0.3 mM TCEP
[4] = molecular target: the molecule itself; test: AUC; sedimentation velocity, 42,000 rpm, 20°C; 0.6 mg/ml in 25 mM sodium acetate pH 4.7, 150 mM NaCl, 0.3 mM TCEP
[5] = molecular target: the molecule itself; test: crystal structure; MBP-CC fusions at 50 mg/mL, sitting drop vapor diffusion, 16°C, sodium acetate pH 4.8; molecular replacement with MBPX(E)

B1: Mcm10-NTD (aa 1-145) L104A/L108A (2A mutant) (domain or fragment, Xenopus laevis, UniProt Q5EAW4 1-145, looked up)
chain: MEVDADLELLTSLLEENEAAERNGVVSHEASSELDEFDELFDGDEDGSYHGSDNGTEEQTIGGVEEDFTTLFGDIDDIKEEEAAASDTKKQSSSVCQEKSKDEAEDEARKMQAQMKKLQEQLQKTALAKTSSPGNPKKSPENKMV
notes: Mcm10, Xenopus laevis, residues 1-145 with L104A/L108A; also called NTD 2A
B1: binds [1].

B2: Full-length Xenopus laevis Mcm10 (natural protein, UniProt Q5EAW4 1-860, looked up)
chain: MEVDADLELLTSLLEENEAAERNGVVSHEASSELDEFDELFDGDEDGSYHGSDNGTEEQTIGGVEEDFTTLFGDIDDIKEEEAAASDTKKQSSSVCQEKSKDELEDELRKMQAQMKKLQEQLQKTALAKTSSPGNPKKSPENKMVQSGKTSRTSPLIERKKTDSNTVAPQLTSPTVPKAKLPDAPKRKQNLSDKSPVQKKMASFLSPPEKSSARPGQSTATQPITNTLKSPVGQQYHVEKFSGLRIRKPRVSSSEMERKMNGRKLIRLAQLQNKIATEKLEEEDWVTFGVIVKKITPQSSNNGKTFSIWRLNDLKDLDKYISLFLFGDVHKEHWKTDQGTVIGLLNANPMKPKEGTDEVCLSVDNPQKVLLMGDAVDLGTCKARKKNGDPCTQMVNLNDCEYCQYHVQAQYKKVSSKRADLQSSYSGHVPKKMARGANGLRERLCQGGFHYGGVSSMAYAATLGSTTAPKKTVQSTLSNMVVRGAEAIALEARQKIAAAKNVVQTDEFKELMTLPTPGALNLKKHLSGVSPQANCGKEGQPIQSISASTLLKQQKQQMLNARKKRAEESQKRFLESTEKSEKSSTLTSSACSVFQSPKQGAEFPNAQKMATPKLGRGFAEGDDVLFFDISPPPAPKLSTSAEAKKLLAIQKLQAKGQTLAKTDPNSIKRKRGSSSEELVAQRVASHASTSPKSPDENEPAIKKHRDQLAYLESEEFQKILNAKSKHTGILKEAEVEIQEHYFDPLVKKEQLEEKMQSIREQSCRVVTCKTCKYTHFKPKETCVSENHDFHWHNGVKRFFKCPCGNRTISLDRLPKKHCSTCGLFKWERVGMLKEKTGPKLGGETLLPRGEEHGKFLNSLK
notes: Minichromosome maintenance protein 10 (Mcm10), Xenopus laevis, full length (860 residues by the construct 230-860; calculated mass 95.4 kDa); also called xMcm10; full-length Mcm10; source: Hi-5 insect cells (baculovirus, Bac-to-Bac), purified (Ni-NTA, Source Q, Superose6 gel filtration)
B2 was tested, and the “stoichiometry N” value [2] was ~2 Mcm10 subunits and ~3.4 Mcm10 subunits.

B3: MBP-CC 95-132 (xMcm10 residues 95-132 fused to maltose binding protein) (domain or fragment, Xenopus laevis, UniProt Q5EAW4 95-132, looked up)
chain: VCQEKSKDELEDELRKMQAQMKKLQEQLQKTALAKTSS
notes: Mcm10, Xenopus laevis, coiled-coil region, residues 95-132; MBPX(E) as in PDB 3H4Z (search model); the linker in the 95-124 model is AAAMG; Calculated mass 45.1 kDa; source: E. coli C41, purified (amylose resin, Superdex S200); not shown: MBP (mutant form MBPX(E) from pMALX(E); short uncleavable linker), N-terminal, kept
With B3 the “stoichiometry N” value [3] was 1.7 MBP-CC subunits and the “stoichiometry N” value [4] was 3 and 2.

B4: MBP-CC 95-124 (xMcm10 residues 95-124 fused to maltose binding protein) (domain or fragment, Xenopus laevis, UniProt Q5EAW4 95-124, looked up)
chain: VCQEKSKDELEDELRKMQAQMKKLQEQLQK
notes: Mcm10, Xenopus laevis, coiled-coil region, residues 95-124 (95-122 in the final model); Trimer in the crystal; dimer in sedimentation velocity; MBPX(E) as in PDB 3H4Z; also called xMcm10-CC^95–124; wild-type CC; source: E. coli C41, purified (amylose resin, Superdex S200); not shown: MBP (mutant form MBPX(E) residues 1-367; uncleavable linker AAAMG), N-terminal, kept
With B4 the “stoichiometry N” value [5] was 3.
